The results in this text go back to publication PMC3874396.

Test [1] deals with RNC^EspP-Hydro-SRP complex (SRP with DACM-labeled Ffh(C235), loaded with RNC^EspP-Hydro) (Escherichia coli | not stated) (UniProt P0AGD7). The experiment in a line: FRET or BRET.
Test [2] concerns the target RNC^EspP-SRP complex (SRP with DACM-labeled Ffh(C235), loaded with RNC^EspP) (Escherichia coli | not stated) (UniProt P0AGD7). The experiment in a line: FRET or BRET.
For test [3], the target named is SRP with fluorescein-labeled Ffh(C421) (Escherichia coli) (UniProt P0AGD7). The experiment in a line: […].

On to “BODIPY-FL (acceptor)-labeled FtsY(C487) (from UniProt P10121 1-497) (receptor)”, for which, in test [1], the Kd amounted to 300 nM and the on-rate (kon) amounted to 15200 M⁻¹ s⁻¹. In test [2], this substance came in with a dissociation constant Kd of 311 nM and a kon of 9200 M⁻¹ s⁻¹.
“RNC^EspP (ribosome-nascent chain complex displaying the EspP signal sequence) (from UniProt Q7BSW5 56-88)”: in test [3], the dissociation constant (Kd) stood at 13.6 nM.
